# Source: patent US20110318339A1 (FABRUS, published 2011)
# Substitutions are numbered along the chain they refer to. In names and notes the source's numbering stands.
# B1: Fab VH5-51_IGHD5-18*01>3_IGHJ4*01 G100K/G104T G24L/S28R/G35V & V3-4_IGLJ1*01 (Fab, V domains shown)
# VH: EVQLVQSGAEVKKPGESLKISCKLSGYRFTSYWIVWVRQMPGKGLEWMGIIYPGDSDTRYSPSFQGQVTISADKSISTAYLQWSSLKASDTAMYYCARRKYSYTYDYFDYWGQGTLVTVSS
# VL: QTVVTQEPSFSVSPGGTVTLTCGLSSGSVSTSYYPSWYQQTPGQAPRTLIYSTNTRSSGVPDRFSGSILGNKAALTITGAQADDESDYYCVLYMGSGISYVFGTGTKVTVL
# notes: Fab made in E. coli: VH on CH1 with His6 and Flag tags (Plasmid A), VL on lambda CL (Plasmid E); also called H: KT LRV & L: wt
# B2: Fab VH1-46_IGHD6-6*01_IGHJ1*01 S102A/S103P/S104F/H111F I51A/N52L/S54T/G56H & L6_IGKJ1*01 S28N/S30D/S31H S52L/A55G (Fab, V domains shown)
# VH: QVQLVQSGAEVKKPGASVKVSCKASGYTFTSYYMHWVRQAPGQGLEWMGIALPTGHSTSYAQKFQGRVTMTRDTSTSTVYMELSSLRSEDTAVYYCAREEYAPFSAEYFQFWGQGTLVTVSS
# VL: EIVLTQSPATLSLSPGERATLSCRASQNVDHYLAWYQQKPGQAPRLLIYDALNRGTGIPARFSGSGSGTDFTLTISSLEPEDFAVYYCQQRSNWPPWTFGQGTKVEIKR
# notes: Fab made in E. coli: VH on CH1 with His6 and Flag tags (Plasmid A), VL on kappa CL (Plasmid C); also called H: APFF ALTH & L: NDH LG
# B3: Fab VH1-46_IGHD6-6*01_IGHJ1*01 S102A/S103P/S104F/H111F I51A/N52L/S54T/G56H & L6_IGKJ1*01 S28N/S30D/S31H S52L/A55S (Fab, V domains shown)
# VH: B2 VH
# VL: B2 VL with G55S
# notes: Fab made in E. coli: VH on CH1 with His6 and Flag tags (Plasmid A), VL on kappa CL (Plasmid C); also called H: APFF ALTH & L: NDH LS
# B4: Fab VH1-46_IGHD6-6*01_IGHJ1*01 S102A/S103P/S104F/H111F I51V/N52L/S54T/G56H & L6_IGKJ1*01 S28N/S30D/S31H S52L/A55G (Fab, V domains shown)
# VH: B2 VH with A51V
# VL: B2 VL
# notes: Fab made in E. coli: VH on CH1 with His6 and Flag tags (Plasmid A), VL on kappa CL (Plasmid C); also called H: APFF VLTH & L: NDH LG
# B5: Fab VH1-46_IGHD6-6*01_IGHJ1*01 S102A/S103P/S104F/H111F I51V/N52L/S54T/G56H & L6_IGKJ1*01 S28N/S30D/S31H (Fab, V domains shown)
# VH: B2 VH with A51V
# VL: B2 VL with L52S, G55A
# notes: Fab made in E. coli: VH on CH1 with His6 and Flag tags (Plasmid A), VL on kappa CL (Plasmid C); also called H: APFF VLTH & L: NDH
# B6: Fab VH1-46_IGHD6-6*01_IGHJ1*01 S102A/S103P/S104F/H111F N52L/S54T/G56H & L6_IGKJ1*01 S28N/S30D/S31H S52L/A55S (Fab, V domains shown)
# VH: B2 VH with A51I
# VL: B2 VL with G55S
# notes: Fab made in E. coli: VH on CH1 with His6 and Flag tags (Plasmid A), VL on kappa CL (Plasmid C); also called H: APFF LTH & L: NDH LS
# B7: Fab VH1-46_IGHD6-6*01_IGHJ1*01 S102A/S103P/S104F/H111F N52L/S54T/G56H & L6_IGKJ1*01 S28N/S30D/S31H (Fab, V domains shown)
# VH: B2 VH with A51I
# VL: B2 VL with L52S, G55A
# notes: Fab made in E. coli: VH on CH1 with His6 and Flag tags (Plasmid A), VL on kappa CL (Plasmid C); also called H: APFF LTH & L: NDH
# B8: Fab VH1-46_IGHD6-6*01_IGHJ1*01 S102A/S103P/S104F/H111F I51A/N52L/S54T/G56H & L6_IGKJ1*01 S28N/S30D/S31H (Fab, V domains shown)
# VH: B2 VH
# VL: B2 VL with L52S, G55A
# notes: Fab made in E. coli: VH on CH1 with His6 and Flag tags (Plasmid A), VL on kappa CL (Plasmid C); also called H: APFF ALTH & L: NDH
# B9: Fab VH1-46_IGHD6-6*01_IGHJ1*01 S102A/S103P/S104F/H111F N52L/S54T/G56H & L6_IGKJ1*01 S28N/S30D/S31H S52L/A55G (Fab, V domains shown)
# VH: B2 VH with A51I
# VL: B2 VL
# notes: Fab made in E. coli: VH on CH1 with His6 and Flag tags (Plasmid A), VL on kappa CL (Plasmid C); also called H: APFF LTH & L: NDH LG
# Target: T1, recombinant human DLL4 (Cat# 1506-D4/CF, R&D Systems) (human, UniProt Q9NR61 27-529)
# T1 construct: Bought protein; also called hDLL4; rHuman DLL4
# Experiment: ELISA, DLL4 coated, Fab 20 nM
# Protocol: (§1) The plate was blocked by adding 1% BSA in Tris-buffered Saline Tween (TBST) and incubating for 1 hour at room temperature followed by washing 2 times with 150 μl TBST. A Fab antibody was serially diluted in 1% BSA in PBS. A 50 μl aliquot of each serial dilution was added, in triplicate, to each well and the plate was incubated for 1 hour at room temperature followed by washing 2 times with TBST. 50 μl of either goat anti-human kappa HRP conjugated secondary antibody (Cat # A7164-1 mL, Sigma-Aldrich) or goat anti-human lambda HRP conjugated secondary antibody (Cat # L1645-1 ml, Sigma-Aldrich), diluted 1:1000 in 1% BSA in PBS, was added to each well and the plate was incubated for 30 minutes at room temperature followed by washing 3 times with 200 μl TBST. Finally, 50 μl TMB one-component reagent (Cat # TMBW-1000-01, BioFax) was added and allowed to develop for 2 minutes at room temperature. The reaction was immediately halted by the addition of 50 μl 0.5M H₂SO₄ and the absorbance at 450 nm was measured using an ELISA plate reader.
row,ELISA absorbance at 450 nm [A450],Binder
1,0.027,B1
2,0.39,B2
3,0.458,B3
4,1.06,B4
5,0.979,B5
6,1.05,B6
7,0.863,B7
8,0.391,B8
9,1.01,B9

# Target: T1, recombinant human DLL4 (Cat# …)
# Experiment: ELISA, DLL4 coated, Fab 0.74 nM
# Protocol: as §1
row,ELISA absorbance at 450 nm [A450],Binder
1,0.006,B1
2,0.028,B2
3,0.046,B3
4,0.397,B4
5,0.288,B5
6,0.398,B6
7,0.27,B7
8,0.024,B8
9,0.368,B9

# Target: T1, recombinant human DLL4 (Cat# …)
# Experiment: ELISA, DLL4 coated, Fab 2.22 nM
# Protocol: as §1
row,ELISA absorbance at 450 nm [A450],Binder
1,0,B1
2,0.069,B2
3,0.04,B3
4,0.755,B4
5,0.608,B5
6,0.557,B6
7,0.463,B7
8,0.069,B8
9,0.594,B9

# Target: T1, recombinant human DLL4 (Cat# …)
# Experiment: ELISA, DLL4 coated, Fab 6.67 nM
# Protocol: as §1
row,ELISA absorbance at 450 nm [A450],Binder
1,0.005,B1
2,0.212,B2
3,0.282,B3
4,0.916,B4
5,0.776,B5
6,0.916,B6
7,0.739,B7
8,0.232,B8
9,0.88,B9

# Target: T1, recombinant human DLL4 (Cat# …)
# Experiment: SPR (ProteOn), hDLL4 amine-coupled on chip
# Protocol: In this example, the binding affinities of selected anti-DLL4 Fabs to recombinant human DLL4 (hDLL4, Cat# 1506-D4/CF, R&D Systems) were analyzed using Surface Plasmon Resonance (SPR) (Biosensor Tools, Salt Lake City, Utah). The Fabs analyzed include germline-derived antibodies and germline-modified DLL4 antibodies. Recombinant hDLL4 was immobilized on a SPR chip using amine coupling at three different surface densities. The Fabs were serially diluted 3-fold, with an initial concentration of 1 μM. Binding studies were run on a ProteOn system using a GLM sensor chip in 10 mM HEPES, pH 7.4, 150 mM NaCl, 0.01% Tween-20, and 0.1 mg/ml BSA at 25° C. The response data from each surface was globally fit to determine the binding constants.
Kd [nM],koff [s⁻¹],kon [M⁻¹ s⁻¹],Binder
2.7,0.00113,430000,B5
